# Measured values taken from US20240158455A1, “MULTIPLE SCLEROSIS ASSOCIATED AUTOANTIGENS, AND USE THEREOF IN THERAPY AND DIAGNOSIS” (NEOGAP Therapeutics AB, priority 2017, published 2024).
# B1: PROK2: recombinant full-length PROK2 (SEQ ID NO: 2) produced in E. coli (protein, listed as Homo sapiens)
# chain: MRSLCCAPLLLLLLLPPLLLTPRAGDAAVITGACDKDSQCGGGMCCAVSIWVKSIRICTPMGKLGDSCHPLTRKNNFGNGRQERRKRKRSKRKKEVPFFGRRMHHTCPCLPGLACLRTSFNRFICLAQK
# B2: RTN3: recombinant full-length RTN3 (SEQ ID NO: 3) produced in E. coli (protein, listed as Homo sapiens)
# chain: MAEPSAATQSHSISSSSFGAEPSAPGGGGSPGACPALGTKSCSSSCADSFVSSSSSQPVSLFSTSQEGLSSLCSDEPSSEIMTSSFLSSSEIHNTGLTILHGEKSHVLGSQPILAKEGKDHLDLLDMKKMEKPQGTSNNVSDSSVSLAAGVHCDRPSIPASFPEHPAFLSKKIGQVEEQIDKETKNPNGVSSREAKTALDADDRFTLLTAQKPPTEYSKVEGIYTYSLSPSKVSGDDVIEKDSPESPFEVIIDKAAFDKEFKDSYKESTDDFGSWSVHTDKESSEDISETNDKLFPLRNKEAGRYPMSALLSRQFSHTNAALEEVSRCVNDMHNFTNEILTWDLVPQVKQQTDKSSDCITKTTGLDMSEYNSEIPVVNLKTSTHQKTPVCSIDGSTPITKSTGDWAEASLQQENAITGKPVPDSLNSTKEFSIKGVQGNMQKQDDTLAELPGSPPEKCDSLGSGVATVKVVLPDDHLKDEMDWQSSALGEITEADSSGESDDTVIEDITADTSFENNKIQAEKPVSIPSAVVKTGEREIKEIPSCEREEKTSKNFEELVSDSELHQDQPDILGRSPASEAACSKVPDTNVSLEDVSEVAPEKPITTENPKLPSTVSPNVFNETEFSLNVTTSAYLESLHGKNVKHIDDSSPEDLIAAFTETRDKGIVDSERNAFKAISEKMTDFKTTPPVEVLHENESGGSEIKDIGSKYSEQSKETNGSEPLGVFPTQGTPVASLDLEQEQLTIKALKELGERQVEKSTSAQRDAELPSEEVLKQTFTFAPESWPQRSYDILERNVKNGSDLGISQKPITIRETTRVDAVSSLSKTELVKKHVLARLLTDFSVHDLIFWRDVKKTGFVFGTTLIMLLSLAAFSVISVVSYLILALLSVTISFRIYKSVIQAVQKSEEGHPFKAYLDVDITLSSEAFHNYMNAAMVHINRALKLIIRLFLVEDLVDSLKLAVFMWLMTYVGAVFNGITLLILAELLIFSVPIVYEKYKTQIDHYVGIARDQTKSIVEKIQAKLPGIAKKKAE
# B3: FABP7 isoform 2. Full length: recombinant full-length human FABP7 isoform 2 (SEQ ID NO: 1) produced in E. coli; in b59 "FABP7" refers to PrEST data (protein, listed as Homo sapiens)
# chain: MVEAFCATWKLTNSQNFDEYMKALGVGFATRQVGNVTKPTVIISQEGDKVVIRTLSTFKNTEISFQLGEEFDETTADDRNCKSVVSLDGDKLVHIQKWDGKETNFVREIKDGKMVMVSNDNSPFFLVFFSSPHTSHLLPSSSLLLPFFLLPSFFNNTSLARFFNYM
# B4: SNAP91: recombinant full-length SNAP91 (SEQ ID NO: 4) produced in E. coli (protein, listed as Homo sapiens)
# chain: MSGQTLTDRIAAAQYSVTGSAVARAVCKATTHEVMGPKKKHLDYLIQATNETNVNIPQMADTLFERATNSSWVVVFKALVTTHHLMVHGNERFIQYLASRNTLFNLSNFLDKSGSHGYDMSTFIRRYSRYLNEKAFSYRQMAFDFARVKKGADGVMRTMAPEKLLKSMPILQGQIDALLEFDVHPNELTNGVINAAFMLLFKDLIKLFACYNDGVINLLEKFFEMKKGQCKDALEIYKRFLTRMTRVSEFLKVAEQVGIDKGDIPDLTQAPSSLMETLEQHLNTLEGKKPGNNEGSGAPSPLSKSSPATTVTSPNSTPAKTIDTSPPVDLFATASAAVPVSTSKPSSDLLDLQPDFSSGGAAAAAAPAPPPPAGGATAWGDLLGEDSLAALSSVPSEAQISDPFAPEPTPPTTTAEIATASASASTTTTVTAVTAEVDLFGDAFAASPGEAPAASEGAAAPATPTPVAAALDACSGNDPFAPSEGSAEAAPELDLFAMKPPETSVPVVTPTASTAPPVPATAPSPAPAVAAAAAATTAATAAATTTTTTSAATATTAPPALDIFGDLFESTPEVAAAPKPDAAPSIDLFSTDAFSSPPQGASPVPESSLTADLLSVDAFAAPSPATTASPAKVDSSGVIDLFGDAFGSSASEPQPASQAASSSSASADLLAGFGGSFMAPSPSPVTPAQNNLLQPNFEAAFGTTPSTSSSSSFDPSVFDGLGDLLMPTMAPAGQPAPVSMVPPSPAMAASKALGSDLDSSLASLVGNLGISGTTTKKGDLQWNAGEKKLTGGANWQPKVAPATWSAGVPPSAPLQGAVPPTSSVPPVAGAPSVGQPGAGFGMPPAGTGMPMMPQQPVMFAQPMMRPPFGAAAVPGTQLSPSPTPASQSPKKPPAKDPLADLNIKDFL
# Test system: T-cells in PBMCs from MS patients and healthy controls
# Test: FluoroSpot with full-length recombinant antigens (52 patients, 24 controls), with ROC analysis
# Format: cell-based, human
# Description: FIGS. 8A-8D. IFNγ/IL-22/IL-17 Fluorospot assay comparing T-cell activation in multiple sclerosis (MS)-patients and healthy controls when stimulated with full-length recombinant antigens (FABP7, PROK2, RTN3, SNAP91). Fifty-two Multiple Sclerosis patients and 24 healthy controls were tested for T-cell activation towards recombinant full-length versions of the autoantigens in a FluoroSpot assay. FIG. 8A: FABP7 isoform 2 (SEQ ID NO:1). FIG. 8B: PROK2 (SEQ ID NO:2). FIG. 8C: RTN3 SEQ ID NO:3. FIG. 8D: SNAP91 SEQ ID NO: 4. P-values calculated using Mann-Whitney test. Staples denote mean and C195%.
# FIGS. 9A-9E. ROC-curves for the full-length antigens, Sensitivity and specificity when used as a diagnostic marker. Individually, the four antigens perform similarly as diagnostic markers for disease, all reaching a sensitivity of ˜50% with a specificity of 95%. FIG. 9A: FABP7 isoform 2. FIG. 9B: PROK2. FIG. 9C: RTN3. FIG. 9D: SNAP91. FIG. 9E: Using a combination of all four antigens as a diagnostic test achieves higher sensitivity and specificity. Specifically, utilizing the ratio of IL-17 divided by the square root of IFNγ response towards the mean response to the four antigens achieves a sensitivity of 70% with a specificity of >95%.
# The full-length proteins can also be used in a similar way, see FIG. 9A-D. Utilizing all four full-length antigens, using each individual's average response to the four, increases the sensitivity and specificity further (FIG. 9E). Combining different readouts, such as analyzing the ratio between IL-17 and IFNγ, can increase the sensitivity of the test further (FIG. 9E, Table 2).
# Recombinant full-length versions of the antigens FABP7 (SEQ ID NO: 1), PROK2 (SEQ ID NO: 2), RTN3 (SEQ ID NO: 3), SNAP91 (SEQ ID NO: 4) were produced in E. coli in house according to standard recombinant protein production protocols and purified via his-tag purification. 52 patients and 24 controls were tested for reactivity towards the antigens in an IFNγ/IL17/IL22 FluoroSpot assay as previously described.
# A second, larger, cohort was collected in order to test the full length antigens. In this cohort, 52 patients and 24 healthy controls were included. The inclusion/exclusion criteria (table 5) as well as the sampling and PBMCs isolation were the same.
# The antigens (FABP7, PROK2, RTN3 and SNAP91) picked out from the screening of PrESTs described in Example 1 and 2 were selected for further testing on the full-length versions of the protein. The full-length antigens were produced by transforming plasmids encoding the antigen and a […] into Escherichia coli. After growth, the bacteria were lysed and the protein purified from the supernatant of the bacterial lysis via 6× histidine-tag purification on an immobilized metal affinity chromatography-column. The antigens were subsequently coupled to beads and endotoxin-washed as previously described.
# The FluoroSpot assay was performed under sterile conditions in a cell culture hood. The cells were thawed in a water bath at 37° C. and washed with cRPMI (RPMI 1640 medium, Sigma Aldrich, containing 10% fetal calf serum, 1% 200 mM L-Glutamine, 1% 10,000 U/ml Penicillin-10 mg/ml Streptomycin). The cells were counted manually using a light-microscope (Nikon TMS-F, Nikon, Japan) and subsequently diluted in cRPMI to a concentration of 2.5×10^6 cells/ml. The FluoroSpot plate (Human IFNγ/IL-22/IL-17A FluoroSpot kit, pre-coated, Mabtech, Sweden) was washed with PBS and then blocked with cRPMI for 30 min at room temperature. The blocking cRPMI was then discarded and 100 μl fresh cRPMI was added to each well of the FluoroSpot plate. Antigen (3×10^6 beads) was added to each well in duplicates according to a specific layout. In accordance to the manufacturer's protocol, anti-CD3 was used as a positive control. Both uncoupled beads and media without stimuli was used as negative controls. PBMCs (250,000 cells) in 100 μl cRPMI were added to each well (125,000 cells for the anti-CD3). […]
Molecule,"reactivity of MS patients PBMCs versus controls, IFNγ","reactivity of MS patients PBMCs versus controls, IL17 and IL22"
B1,significantly higher reactivity,significantly higher reactivity
B2,significantly higher reactivity,significantly higher reactivity
B3,significantly higher reactivity,significantly higher reactivity
B4,apart from IFNγ for SNAP91,significantly higher reactivity
